# Measured values: US20100015126A1, “Methods of Binding of Cross-Beta Structures By Chaperones” (priority 2006, published 2010)
# How the values were obtained:
# [1] = target: Immunoglobulin heavy constant gamma 3 (G3m marker)/Ig gamma-3 chain C region (human) (UniProt P01860); assay: BiP-Sepharose pull-down, AL amyloidosis patient I plasma (B2), MS of urea eluate; may be indirect
# [2] = target: Isoform Long of Antigen KI-67/Antigen KI-67 (human) (UniProt P46013); assay: as above
# [3] = target: IGLC2 protein (immunoglobulin lambda C2)/Immunoglobulin lambda (human) (UniProt P0DOY2); assay: as above
# [4] = target: 25 kDa protein/immunoglobulin lambda chain/rheumatoid factor G9 light chain (lambda V3)/IGLC1 protein (human) (UniProt P0CG04); assay: as above
# [5] = target: Immunoglobulin lambda variable 3-25/V2-17 protein (Fragment) (human) (UniProt P01717); assay: as above
# [6] = target: Fc fragment of IgG binding protein (IgGFc-binding protein precursor) (human) (UniProt Q9Y6R7); assay: as above
# [7] = target: Apolipoprotein E precursor/Apolipoprotein E/Apolipoprotein E3 (Fragment) (human) (UniProt P02649); assay: as above
# [8] = target: Isoform 1 of Plectin-1 (human) (UniProt Q15149); assay: BiP-Sepharose pull-down, RA patient III serum (B4), MS of urea eluate; may be indirect
# [9] = target: Ig lambda chain V-III region SH (human) (UniProt P01714); assay: as above
# [10] = target: V1-3 protein (Fragment)/immunoglobulin lambda variable 2-11 (human) (UniProt P01706); assay: as above
# [11] = target: 187 kDa protein/Complement component 3 (human) (UniProt P01024); assay: as above
# [12] = target: GCN1 general control of amino-acid synthesis 1-like 1 (yeast)/GCN1-like protein 1 (HsGCN1) (human) (UniProt Q92616); assay: as above
# [13] = target: CD5 antigen-like precursor (SP-alpha, CT-2, IgM-associated peptide)/CD5 molecule-like (human) (UniProt O43866); assay: as above
# [14] = target: Immunoglobulin J chain, Immunoglobulin J polypeptide (human) (UniProt P01591); assay: as above
# [15] = target: Phosphatase and actin regulator 4 isoform 1/Hypothetical protein DKFZp686L07205 (human) (UniProt Q8IZ21); assay: as above
# [16] = target: Vitronectin precursor (Serum-spreading factor/S-protein) (human) (UniProt P04004); assay: as above
# [17] = target: Hypothetical protein/Heat shock 70 kDa protein 5 (glucose-regulated protein, 78 kDa = GRP78 = BiP = HSPA5), as identified in eluates (human) (UniProt P11021); assay: BiP-Sepharose pull-down, RA synovial fluid sample 6B, 1 M NaCl eluate, MS; BiP may stem from the column
# [18] = target: Isoform H17 of Myeloperoxidase precursor (human) (UniProt P05164); assay: BiP-Sepharose pull-down, RA synovial fluid sample 4B, 1 M NaCl eluate, MS; may be indirect
# [19] = target: IGHM protein, coagulation factor VII (serum prothrombin conversion accelerator) (human) (UniProt P08709); assay: as above
# [20] = target: Immunoglobulin heavy constant gamma 3 (G3m marker)/Ig gamma-3 chain C region (human) (UniProt P01860); assay: BiP-Sepharose pull-down, AL amyloidosis patient II plasma (B3), MS of urea eluate; may be indirect
# [21] = target: Isoform 1 of Plectin-1 (human) (UniProt Q15149); assay: as above
# [22] = target: V1-3 protein (Fragment)/immunoglobulin lambda variable 2-11 (human) (UniProt P01706); assay: as above
# [23] = target: 25 kDa protein/immunoglobulin lambda chain/rheumatoid factor G9 light chain (lambda V3)/IGLC1 protein (human) (UniProt P0CG04); assay: as above
# [24] = target: Dynein heavy chain domain 3/KIAA1503 protein (Fragment) (human) (UniProt Q9P225); assay: as above
# [25] = target: Hypothetical protein/Ig kappa chain V-II region RPMI 6410 precursor (human) (UniProt P06310); assay: as above
# [26] = target: IGLC1 protein (immunoglobulin lambda C1)/immunoglobulin lambda chain/immunoglobulin C1 segment protein (fragment) (human) (UniProt P0CG04); assay: as above
# [27] = target: Complement factor H-related protein 3 precursor (human) (UniProt Q02985); assay: as above
# [28] = target: Apolipoprotein E precursor/Apolipoprotein E/Apolipoprotein E3 (Fragment) (human) (UniProt P02649); assay: as above
# Apolipoprotein E precursor/Apolipoprotein E/Apolipoprotein E3 (Fragment) (human), sequence (P02649 19-317 limits assumed): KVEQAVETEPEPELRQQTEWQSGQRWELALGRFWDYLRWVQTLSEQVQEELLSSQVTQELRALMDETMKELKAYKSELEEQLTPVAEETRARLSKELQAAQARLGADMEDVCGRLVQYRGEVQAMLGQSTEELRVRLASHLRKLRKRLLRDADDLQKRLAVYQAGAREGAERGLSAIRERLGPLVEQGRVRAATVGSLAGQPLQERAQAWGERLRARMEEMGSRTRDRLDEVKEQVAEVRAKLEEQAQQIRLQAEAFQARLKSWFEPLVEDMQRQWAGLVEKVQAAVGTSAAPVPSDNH
# V1-3 protein (Fragment)/immunoglobulin lambda variable 2-11 (human), sequence (P01706 20-119 limits assumed): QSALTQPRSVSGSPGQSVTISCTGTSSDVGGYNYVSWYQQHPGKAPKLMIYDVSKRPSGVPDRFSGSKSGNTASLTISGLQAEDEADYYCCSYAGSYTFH
# Immunoglobulin heavy constant gamma 3 (G3m marker)/Ig gamma-3 chain C region (human), sequence (P01860 other isoform, or with tags, fused parts or gaps limits assumed): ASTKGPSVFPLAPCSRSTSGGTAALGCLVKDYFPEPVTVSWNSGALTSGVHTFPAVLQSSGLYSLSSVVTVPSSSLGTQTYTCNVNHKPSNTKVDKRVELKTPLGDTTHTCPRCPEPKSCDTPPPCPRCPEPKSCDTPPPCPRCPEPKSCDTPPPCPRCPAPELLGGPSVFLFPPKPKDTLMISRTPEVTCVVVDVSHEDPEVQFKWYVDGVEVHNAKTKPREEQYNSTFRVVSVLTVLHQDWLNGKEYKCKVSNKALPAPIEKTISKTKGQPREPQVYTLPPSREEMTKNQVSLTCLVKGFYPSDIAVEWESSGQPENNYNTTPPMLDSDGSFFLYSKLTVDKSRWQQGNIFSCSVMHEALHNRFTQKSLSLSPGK
# GCN1 general control of amino-acid synthesis 1-like 1 (yeast)/GCN1-like protein 1 (HsGCN1) (human), sequence (Q92616 2-2671 limits assumed): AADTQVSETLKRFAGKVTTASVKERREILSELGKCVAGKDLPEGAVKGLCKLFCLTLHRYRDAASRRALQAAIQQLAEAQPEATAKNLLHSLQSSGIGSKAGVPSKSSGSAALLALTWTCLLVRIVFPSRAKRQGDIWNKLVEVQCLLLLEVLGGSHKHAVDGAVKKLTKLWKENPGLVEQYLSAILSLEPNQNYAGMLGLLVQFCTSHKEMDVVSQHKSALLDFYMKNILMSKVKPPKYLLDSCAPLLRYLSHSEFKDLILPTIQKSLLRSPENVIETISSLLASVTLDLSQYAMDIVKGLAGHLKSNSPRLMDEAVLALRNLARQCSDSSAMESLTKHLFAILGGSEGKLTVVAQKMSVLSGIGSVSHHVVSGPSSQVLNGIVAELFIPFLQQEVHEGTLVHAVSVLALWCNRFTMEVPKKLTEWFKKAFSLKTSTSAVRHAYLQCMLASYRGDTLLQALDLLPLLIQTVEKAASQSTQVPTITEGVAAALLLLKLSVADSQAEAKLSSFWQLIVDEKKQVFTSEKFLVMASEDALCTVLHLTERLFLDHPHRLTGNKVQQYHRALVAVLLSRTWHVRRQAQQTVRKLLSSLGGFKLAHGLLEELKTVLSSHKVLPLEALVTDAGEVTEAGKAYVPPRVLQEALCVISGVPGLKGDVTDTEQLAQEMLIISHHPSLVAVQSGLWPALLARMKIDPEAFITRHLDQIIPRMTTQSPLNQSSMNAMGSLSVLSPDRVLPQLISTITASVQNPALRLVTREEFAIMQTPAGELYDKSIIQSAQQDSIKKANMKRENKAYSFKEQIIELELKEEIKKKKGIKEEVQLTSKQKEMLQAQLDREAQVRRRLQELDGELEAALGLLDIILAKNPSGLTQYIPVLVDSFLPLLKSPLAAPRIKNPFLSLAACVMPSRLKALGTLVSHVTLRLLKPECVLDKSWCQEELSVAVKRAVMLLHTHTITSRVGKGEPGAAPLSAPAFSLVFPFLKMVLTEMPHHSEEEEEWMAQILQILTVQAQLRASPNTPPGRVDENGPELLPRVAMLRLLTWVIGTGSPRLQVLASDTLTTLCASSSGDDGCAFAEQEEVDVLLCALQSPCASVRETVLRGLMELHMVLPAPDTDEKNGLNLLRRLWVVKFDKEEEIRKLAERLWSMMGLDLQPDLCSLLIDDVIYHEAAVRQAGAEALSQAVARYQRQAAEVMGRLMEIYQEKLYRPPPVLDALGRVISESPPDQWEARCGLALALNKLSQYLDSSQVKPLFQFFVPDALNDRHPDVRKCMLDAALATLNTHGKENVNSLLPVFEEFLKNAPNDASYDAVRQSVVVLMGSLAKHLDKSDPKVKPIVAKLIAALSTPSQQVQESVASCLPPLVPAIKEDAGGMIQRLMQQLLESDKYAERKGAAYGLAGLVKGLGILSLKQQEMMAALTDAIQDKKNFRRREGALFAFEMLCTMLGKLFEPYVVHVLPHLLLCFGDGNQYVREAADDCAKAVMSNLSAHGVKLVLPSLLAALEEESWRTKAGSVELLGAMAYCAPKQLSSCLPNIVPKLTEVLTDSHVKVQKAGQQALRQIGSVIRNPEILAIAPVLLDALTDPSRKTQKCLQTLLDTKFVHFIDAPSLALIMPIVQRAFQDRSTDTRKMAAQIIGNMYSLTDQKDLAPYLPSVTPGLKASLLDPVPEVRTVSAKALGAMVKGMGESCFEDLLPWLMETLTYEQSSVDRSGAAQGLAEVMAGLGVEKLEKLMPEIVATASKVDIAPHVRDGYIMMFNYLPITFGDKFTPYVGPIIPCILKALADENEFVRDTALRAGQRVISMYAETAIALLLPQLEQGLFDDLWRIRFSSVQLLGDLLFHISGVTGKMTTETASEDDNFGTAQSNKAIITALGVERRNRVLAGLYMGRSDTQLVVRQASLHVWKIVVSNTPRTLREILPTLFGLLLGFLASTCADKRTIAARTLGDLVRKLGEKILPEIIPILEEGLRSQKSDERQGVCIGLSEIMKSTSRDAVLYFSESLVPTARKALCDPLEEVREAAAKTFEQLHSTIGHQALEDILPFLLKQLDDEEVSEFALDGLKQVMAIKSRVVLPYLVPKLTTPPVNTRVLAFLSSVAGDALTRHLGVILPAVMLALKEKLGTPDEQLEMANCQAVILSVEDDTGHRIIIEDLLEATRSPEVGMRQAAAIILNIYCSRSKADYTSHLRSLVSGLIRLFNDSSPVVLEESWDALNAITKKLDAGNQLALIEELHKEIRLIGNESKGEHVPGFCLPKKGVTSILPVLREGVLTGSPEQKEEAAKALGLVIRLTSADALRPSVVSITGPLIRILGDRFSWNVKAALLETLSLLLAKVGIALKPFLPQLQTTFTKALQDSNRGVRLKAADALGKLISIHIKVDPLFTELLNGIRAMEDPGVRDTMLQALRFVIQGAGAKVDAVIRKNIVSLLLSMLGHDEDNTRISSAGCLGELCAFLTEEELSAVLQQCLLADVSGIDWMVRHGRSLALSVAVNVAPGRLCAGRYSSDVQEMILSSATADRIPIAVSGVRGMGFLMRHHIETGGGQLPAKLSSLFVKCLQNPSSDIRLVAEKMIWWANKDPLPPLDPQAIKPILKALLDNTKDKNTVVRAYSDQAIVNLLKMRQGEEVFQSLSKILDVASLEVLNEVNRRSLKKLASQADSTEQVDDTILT
# CD5 antigen-like precursor (SP-alpha, CT-2, IgM-associated peptide)/CD5 molecule-like (human), sequence (O43866 20-347 limits assumed): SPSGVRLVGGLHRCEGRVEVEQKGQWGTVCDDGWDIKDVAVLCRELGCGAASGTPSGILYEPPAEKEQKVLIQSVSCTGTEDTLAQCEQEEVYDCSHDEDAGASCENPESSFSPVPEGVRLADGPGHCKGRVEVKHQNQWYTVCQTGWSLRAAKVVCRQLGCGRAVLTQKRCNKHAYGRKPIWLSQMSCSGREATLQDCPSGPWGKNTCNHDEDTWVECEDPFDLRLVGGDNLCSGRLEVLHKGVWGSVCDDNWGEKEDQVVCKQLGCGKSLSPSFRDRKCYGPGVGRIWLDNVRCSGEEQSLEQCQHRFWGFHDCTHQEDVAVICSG
# Vitronectin precursor (Serum-spreading factor/S-protein) (human), sequence (P04004 20-478 limits assumed): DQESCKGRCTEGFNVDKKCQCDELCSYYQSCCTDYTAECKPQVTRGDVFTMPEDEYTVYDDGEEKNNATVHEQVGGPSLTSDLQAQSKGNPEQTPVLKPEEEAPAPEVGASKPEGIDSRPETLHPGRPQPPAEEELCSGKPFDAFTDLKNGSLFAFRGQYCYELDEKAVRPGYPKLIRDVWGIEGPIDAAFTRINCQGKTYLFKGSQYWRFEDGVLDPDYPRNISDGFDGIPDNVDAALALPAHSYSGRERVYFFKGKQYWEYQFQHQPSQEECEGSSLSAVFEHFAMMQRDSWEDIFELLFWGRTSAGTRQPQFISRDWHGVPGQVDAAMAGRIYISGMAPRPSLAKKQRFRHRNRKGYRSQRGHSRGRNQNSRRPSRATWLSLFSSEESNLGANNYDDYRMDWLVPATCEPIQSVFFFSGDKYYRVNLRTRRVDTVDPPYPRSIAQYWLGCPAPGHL
# Complement factor H-related protein 3 precursor (human), sequence (Q02985 19-330 limits assumed): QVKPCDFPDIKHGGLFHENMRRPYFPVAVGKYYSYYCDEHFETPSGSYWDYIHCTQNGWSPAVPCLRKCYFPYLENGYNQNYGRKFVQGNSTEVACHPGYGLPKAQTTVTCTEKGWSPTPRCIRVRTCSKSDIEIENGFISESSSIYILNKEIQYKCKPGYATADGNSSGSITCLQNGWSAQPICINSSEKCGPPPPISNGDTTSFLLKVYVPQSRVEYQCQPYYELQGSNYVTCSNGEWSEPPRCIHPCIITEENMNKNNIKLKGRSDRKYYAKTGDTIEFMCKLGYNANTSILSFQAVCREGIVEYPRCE
# Immunoglobulin J chain, Immunoglobulin J polypeptide (human), sequence (P01591 23-159 limits assumed): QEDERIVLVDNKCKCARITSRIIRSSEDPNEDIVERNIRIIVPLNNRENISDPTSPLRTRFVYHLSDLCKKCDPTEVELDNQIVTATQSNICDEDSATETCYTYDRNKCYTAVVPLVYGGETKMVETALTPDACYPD
# Hypothetical protein/Ig kappa chain V-II region RPMI 6410 precursor (human), sequence (P06310 21-120): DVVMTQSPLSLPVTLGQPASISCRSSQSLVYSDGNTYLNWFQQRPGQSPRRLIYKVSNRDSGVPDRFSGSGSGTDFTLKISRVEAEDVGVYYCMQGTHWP
# Immunoglobulin lambda variable 3-25/V2-17 protein (Fragment) (human), sequence (P01717 20-112 limits assumed): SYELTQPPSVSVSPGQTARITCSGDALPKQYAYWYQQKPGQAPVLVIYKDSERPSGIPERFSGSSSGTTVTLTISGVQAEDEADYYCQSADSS
# Ig lambda chain V-III region SH (human), sequence (P01714 21-112 limits assumed): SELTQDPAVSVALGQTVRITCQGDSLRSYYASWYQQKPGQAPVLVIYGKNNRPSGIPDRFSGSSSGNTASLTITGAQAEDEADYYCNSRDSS
substance,measurement,setting,value
"recombinant human BiP with C-terminal linker, FLAG-tag and His-tag (BiP-FLAG-His) (from UniProt P11021 19-654)",# of peptides,[1],2 peptides
same,# of peptides,[2],1 peptides
same,# of peptides,[3],1 peptides
same,# of peptides,[4],1 peptides
same,# of peptides,[5],8 peptides
same,# of peptides,[6],4 peptides
same,# of peptides,[7],6 peptides
same,# of peptides,[8],2 peptides
same,# of peptides,[9],2 peptides
same,# of peptides,[10],1 peptides
same,# of peptides,[11],9 peptides
same,# of peptides,[12],2 peptides
same,# of peptides,[13],1 peptides
same,# of peptides,[14],5 peptides
same,# of peptides,[15],2 peptides
same,# of peptides,[16],4 peptides
same,# of unique peptides,[17],17 peptides
same,# of unique peptides,[18],1 peptides
same,# of unique peptides,[19],1 peptides
same,# of peptides,[20],2 peptides
same,# of peptides,[21],1 peptides
same,# of peptides,[22],2 peptides
same,# of peptides,[23],1 peptides
same,# of peptides,[24],2 peptides
same,# of peptides,[25],1 peptides
same,# of peptides,[26],1 peptides
same,# of peptides,[27],1 peptides
same,# of peptides,[28],1 peptides
